Paper PMC7018876, “The novel llama-human chimeric antibody has potent effect in lowering LDL-c levels in hPCSK9 transgenic rats” (Clinical and Translational Medicine, 2020)

What was measured:
[1] = target: T1, human proprotein convertase subtilisin/kexin type 9, his tagged antigen (Homo sapiens, UniProt Q8NBP7); test: SPR; hPCSK9-his on CM5 chip (~800 RU); 6 or 7-point two-fold dilutions of the VHH-based proteins injected; 25 °C; global fit with floating Rmax; Biacore T200; conditions: both partners purified
T1 construct: human PCSK9; also called hPCSK9; PCSK9; source: bought: Sinobiological, China, Cat# 29698-H08H
T1 sequence (Q8NBP7 31-692): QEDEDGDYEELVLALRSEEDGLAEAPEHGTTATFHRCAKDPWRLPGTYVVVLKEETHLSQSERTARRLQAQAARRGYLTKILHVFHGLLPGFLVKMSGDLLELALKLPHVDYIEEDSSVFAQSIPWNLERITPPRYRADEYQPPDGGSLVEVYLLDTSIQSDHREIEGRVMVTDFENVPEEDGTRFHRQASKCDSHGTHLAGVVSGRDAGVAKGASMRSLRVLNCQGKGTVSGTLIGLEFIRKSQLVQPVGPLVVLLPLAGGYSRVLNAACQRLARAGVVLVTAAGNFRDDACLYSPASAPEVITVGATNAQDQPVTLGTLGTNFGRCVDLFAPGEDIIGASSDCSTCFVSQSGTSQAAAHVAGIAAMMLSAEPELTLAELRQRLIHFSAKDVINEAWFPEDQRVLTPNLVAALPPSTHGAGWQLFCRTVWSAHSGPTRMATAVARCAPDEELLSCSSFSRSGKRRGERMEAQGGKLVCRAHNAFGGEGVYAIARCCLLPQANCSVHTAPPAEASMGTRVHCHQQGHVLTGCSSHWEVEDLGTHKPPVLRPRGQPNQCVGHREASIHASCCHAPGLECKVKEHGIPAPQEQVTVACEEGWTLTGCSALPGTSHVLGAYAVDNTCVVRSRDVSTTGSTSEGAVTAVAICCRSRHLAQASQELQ

[2] = target: T1, human proprotein convertase …; test: SPR; lysate kinetics screening; hPCSK9-his immobilised on CM5 chip (~18000 RU); supernatants of TES lysates of clones flowed over; 25 °C; binding 120 s, dissociation 140 s; binding value read at ~120 s, stability value at ~135 s; Biacore T200; conditions: one partner purified

Binder | Kd [1] [nM] | koff [1] [s⁻¹] | kon [1] [M⁻¹ s⁻¹] | binding value (RU) [2] [RU] | stability value (RU) [2] [RU]
VHH-A6 (VHH, llama anti-hPCSK9 VHH from an immune phage library; source: E. coli, supernatant of TES lysate (screening); E. coli induced by IPTG, and Pichia pastoris X33, purified (Histrap FF column)) VHH: PGAAAGVGGGSVQAGGSLRLSCAASRYTDRTRCIAWFRQVPGKEREGVACLDRAGGQSAYADSAKGRFTVSQDNAGNTVYLQMDNLIPEDSAMYYCAAAGVGQWYTCLQKFIRDKRSFANWGQGTQVTVSS | 29 | 0.000447 | 15400 | 166 | 239
VHH-H12 (VHH, llama anti-hPCSK9 VHH from an immune phage library; source: E. coli, supernatant of TES lysate (screening); E. coli induced by IPTG, and Pichia pastoris X33, purified (Histrap FF column)) VHH: GGGLVQAGGSLRLSCAASRSTFSGYAMAWFRQAPGKEREFVACIEREIPGHPAWSGLTYYADSKKGRFTISRDNAKNTVYLQMNSLKPEDTAVYYCAAGLKYPAQKHYDYDYWGQGTQVTVPS | 704 | 0.00524 | 7440 | 272 | 373
VHH-G8 (VHH, llama anti-hPCSK9 VHH from an immune phage library; source: E. coli, supernatant of TES lysate (screening); E. coli induced by IPTG, and Pichia pastoris X33, purified (Histrap FF column)) VHH: DVQLVESGGGSVQAGGSLTLSCVVSGYRGQKICTGWFRQFPGMEREAVARILPRGPNTQYTDSVKGRFTISQDAAKNTVNLQMSSLKPKDTAMYYCAQGWGGASDWALQPRRYNYWGQGTQVTVSS | 73 | 0.0114 | 162000 | 132 | 160
VHH-B11 (VHH, llama anti-hPCSK9 VHH from an immune phage library; 17 kDa on SDS-PAGE; also called monovalent VHH-B11; monovalency VHH-B11; source: E. coli, supernatant of TES lysate (screening); E. coli induced by IPTG, and Pichia pastoris X33, purified (Histrap FF column)) VHH: EVQLVESGGGSVQAGGSLRLSCTVSGYTYSSNCMGWFRQAPGKEHEGVASIYIGGGSTYYADSVKGRFTISQDNAKNTVYLQMNSLKPEDTAMYYCAVGCQGLVDFGYWDQGTQVTVSS | 8.69 | 0.00235 | 271000 | 409 | 472
